Test results taken from the DeepSol protein solubility set.

Assay: soluble on expression in E. coli; label from the status in PepcDB or PDB records
With “MGSDKIHHHHHHMEEYIRRILTLGRKRLEKFALKGGKPLPERPLIVKLMEEIRGFLGSGENRVILLYGLRGVGKTTMLAQLYLKLIGEVSGERILYASVDEIKMLGYRLKDVFESYEHIIGERLEELREPTIFLLDEVHYDEEWDLALKVAYDRARNLMIVATGSSAIELKLSTDLARRAKRFHITPLTFTEYLLLKGIRVNEEVKKVLKRLLLAGEVEGIEEEIRKTFLTFDPIEVERYLLYGSLPLALSSREPLEETYSIVERIIRWDLAKMGFSQEVLEKAFLLMLMLASGEALNYDRLTSRLGISRPVLAKLLSAFENLEVIFPVRAYGSLGKAIRKTPKYKFLAPVIRTSILNHFGLLEVNEKILGNLLEDVVALYLYIIARELSGSVTYDAEKGGADFILTTPIGRIVLEVGWGKKGKEQVKRTMKKIGAERGIIIHGGDFREKNGVIWLPKEWFLLML” the “soluble on expression in E. coli” value was “not soluble”. In the case of “MNTIAFKEIFLPIRPSIRAVCHAFLRDDEEAEDATQEVYLRLWEARMRLDGLDNPRAYAIRIARNYCLNLIRKASNSPYPTSLEAAEVQEVSETHGGEADLLLSEQIGRLRQWLRGVSELYRTVFAMSHFRRLSNGEIAERLGLTEGNVRVILCRLRREAKEVMKDDA”, the “soluble on expression in E. coli” value is reported as “not soluble”. For “MGNFYSLGKKEPVIRLLQITDCHLFSSESECLLGINTTETFQAVIEHIHQTDFAYDAVLATGDLIQDHNPEAYHRFAEMAKQFVKPLFWLEGNHDKQPQMSLYLGKHPHIQPEKQLLAGEKWQILLLNSQVAGAPSGYLSAGQLAWLNSKLAKHLDRYALVVLHHNILPTNSAWLDQHCLKNSEQLAKVLKSYRNVKAILHGHIHQEVDRVWQGYRVLATPSTCIQFKPNCRDFTLDMLPQGWREISLLEDGSIETTVKRLASNQFLPDFQSKGY”, the “soluble on expression in E. coli” value was “not soluble”. For “MGSDKIHHHHHHMKNIHSIEFYTGSKEELLPDFEKDFPYIASRAELDKYIGGYVPWHWHRTVELFYMESGSIEYDTPGGKILFPAGSGGMINPNVLHMTKAISQREKNIQLLHIFDVSLLAGEQGSRIEQKYIAPVITAPQIEVIPLFPGNAEEERILKLLAASFRLSSDEFGYEIKLREALTEIWLMLFELSCSMREKKGEHNKSNDKIKLMMIYIHEHYREKISILELAAAAYLSERECYRVFHDCLHMTPVEYITTYRLQIACQMLAKGQEPITVISHECGLGSSSYFGKVFREYAYCSPTEYRKKWQNSDM”, the “soluble on expression in E. coli” value was “not soluble”. In the case of “MSVKIDVIRVEIPEGTNVIIGQSHFIKTVEDLYETLASSSPHLKFGIAFCEASGKRLIRWDGNDEELIKLAQQTALKIGAGHTFVIYIKNGFPINVLNRIKNVEEVVRIFAATANPLQVLVAETDQGRGVIGVVDGYTPLGIETEADIKERKELLRKFGYKR”, the “soluble on expression in E. coli” value is reported as “soluble”. In the case of “GMDEKPAITKIISGGQTGADRAALDFAIKHHIPYGGWVPKGRLAEGGRVPETYQLQEMPTSDYSKRTEKNVLDSDGTLIISHGILKGGSALTEFFAEQYKKPCLHIDLDRISIEDAATLINSWTVSHHIQVLNIAGPRAGKDPEIYQATMDLLEVFLA”, the “soluble on expression in E. coli” value is reported as “soluble”. For “MGSDKIHHHHHHMNSIFTEENLLAFTTAARFGSFSKAAEELGLTTSAISYTIKRMETGLDVVLFTRSTRSIELTESGRYFFRKATDLLNDFYAIKRRIDTISQGIEARVRICINQLLYTPKHTARLLQVLKKQFPTCQITVTTEVYNGVWDAIINNQANIAIGAPDTLLDGGGIDYTEIGAIRWAFAIAPDHPLAFVPEPIAESQLRLYPNIMVEDTAHTINKKVGWLLHGQESILVPDFNTKCQCQILGEGIGFLPDYMVREAMTQSLLVTRQIHNPRQDSRMLLATQHSATGQVTQWIKKQFAPNGILTGIYQDLLHREN”, the “soluble on expression in E. coli” value was “not soluble”. In the case of “MGSDKIHHHHHHMNKIGYNMFQVDKNYWLVIAPYVYCCIKGKKALLYNTKNWEYLEVENENVIGLLRQLHKRDNLGAVFCEGKMLTELCYSNFISDFVLKEMGGVIDVASFPDKPIQMMPILNLQCDVDKLQQIEDRGIGEDILFNLLEINVFLYNVCDHHCLYCSKYSQQNLCCRVAETETSQVLDISALKSIIAQIRYGVVGRLNLFGGNIWKYPNYNDIPFLLSGFKGQIHIWSHYADFVGNKILDSDFFYDVIVPFPMEEELLRNCIFLLGDLQIKIHFYVTQIDEYAKAEEIVHKYAINDYSIHSTYVGCNLDYFEKYVYMDKGDILQSQYSMSQIFAHQKMNSHFFGSLSISVNGDVYANLNSLVLGNIYKDSLIDIVNKEMLDNTAWRKIRNDYPCCDCIYQWLCPSPSNYELAIGKPNLCHVKP”, the “soluble on expression in E. coli” value is reported as “not soluble”. For “MKEYLTRSNISYFSIGSGTPIIFLHGLSLDKQSTCLFFEPLSNVGQYQRIYLDLPGMGNSDPISPSTSDNVLETLIEAIEEIIGARRFILYGHSYGGYLAQAIAFHLKDQTLGVFLTCPVITADHSKRLTGKHINILEEDINPVENKEYFADFLSMNVIINNQAWHDYQNLIIPGLQKEDKTFIDQLQNNYSFTFEEKLKNINYQFPFKIMVGRNDQVVGYQEQLKLINHNENGEIVLLNRTGHNLMIDQREAVGFHFDLFLDELNSNN”, the “soluble on expression in E. coli” value was “soluble”. For “RPVWYGDPISTSTSHRDLMLVVDLSYSMSQEDMQSGQQMVDRLTAVKQVLSEFIAKREGDRIGLILFADHAYLQTPLTLDRQTVANQLNQTVLKLIGTQTAIGEGIGLATKTFIDSDAPQRVMILLSDGSNTAGVLDPLEAANIAKQYNTTIYTVGVGAGEMVVKDFLFSRKVNTAQDLDEKTLQTIATTTGGHYFRARNQQDLQNIYDTINQLEPISQSN”, the “soluble on expression in E. coli” value was “not soluble”. With “MPFVPVAALKDYVGKDLGHSEWLTIDQERVDQFAECTGDHQFIHVDPEKAAKTPFGGTIAHGFLSLSLIPKLMEGLLVLPEGLKMAVNYGLDTVRFIQPVRVGSRVRLGLTLLDVNEKNPGQWLIKARATLEIEGQEKPAYIAETLSLCFV” the “soluble on expression in E. coli” value was “not soluble”. With “MSGAYDESAMSDETTDSFWEVGNYKRTVKRIEDGHRLCNDMMSCIQERAKIEKAYSQQLTDWSKRWRQLVERGPQYGTLERAWLAVMTEAEKVSELHQEVKNNLLNEDLEKVKNWQKDAYHKQMMGGFKETKEADEGFRKAQKPWAKKLKELETAKKTYHMACKEEKIASAREANSKGEASVTTDQQKKLQEKVDKCKNDVQKAKEKYEKSLDELNKCTPQYMENMEVVFDQCQQFEEKRLNFLREVLLDTKRHLNLTESQSYATVYRELERTIVSASAQEDLKWFSSVHGPGMHMNWPQFEEFNPDLSHAISKKEKVKRNHDGVTLTQVTHGAEHGTPQTGDRGSVSSYEKNQQYSAEWSDDEQPPTAAQSASETNGGNPFEEDSKGVRVRALYDYEGQEQDELTFKAGDELTKLEDEDEQGWCKGRLDSGQLGLYPANYVEPV” the “soluble on expression in E. coli” value was “not soluble”. In the case of “MKLGFIGLGIMGSPMAINLARAGHQLHVTTIGPVADELLSLGAVNVETARQVTEFADIIFIMVPDTPQVEDVLFGEHGCAKTSLQGKTIVDMSSISPIETKRFAQRVNEMGADYLDAPVSGGEIGAREGTLSIMVGGEQKVFDRVKPLFDILGKNITLVGGNGDGQTCKVANQIIVALNIEAVSEALVFASKAGADPVRVRQALMGGFASSRILEVHGERMINRTFEPGFKIALHQKDLNLALQSAKALALNLPNTATCQELFNTCAANGGSQLDHSAMVQALELMANHKLS”, the “soluble on expression in E. coli” value is reported as “soluble”. For “PAKLGYWKIRGLQQPVRLLLEYLGEKYEEQIYERDDGEKWFSKKFELGLDLPNLPYYIDDKCKLTQSLAILRYIADKHGMIGTTSEERARVSMIEGAAVDLRQGISRISYQPKFEQLKEGYLKDLPTTMKMWSDFLGKNPYLRGTSVSHVDFMVYEALDAIRYLEPHCLDHFPNLQQFMSRIEALPSIKAYMESNRFIKWPLNGWHAQFGGGDAPP”, the “soluble on expression in E. coli” value was “soluble”. With “MSVWLLQMKTNAIITDITKSIVKMDRILVYRHTNPDPDAIGAQFGLVALLKAAYPEKLVVAMAPVPGHLAWIDTTDEQLVTPQATDLVIAVDCANHERLAGELPTGAFVIKIDHHPNHDPYGQLNWVDETYSSCSEMIYELAQAGCFTVTAAVATKLYAGIIGDTVRFSTPETSTRTLKIASALAATDIDIATISHHEMDLTPALSKLYGYVLSEQTIEPSGLAHVVLPQRIFSDLSLEYGDEDALVPLPGNLTTVKVWLFFIETPQGQYRVHFRSKAINVNAVAKAFNGGGHPLASGAFVPDLATVGQVIEQMQAQVLAATAVDLEHHHHHH” the “soluble on expression in E. coli” value was “not soluble”.
